Usually Kd stands for the concentration at which binding is half-saturated. A high value points to weaker binding.

Experimental findings from patent publication US20180127480A1 are described below.

For assay [1], the target named is biotinylated human SIRPα allele 1 domain 1 (a1d1) (human) (UniProt P78324). Kind of assay: SPR, Biacore T100, biotinylated SIRPα on SA chip, 25 C, 1:1 Langmuir model. In general terms: SPR reads the build-up and loss of mass on a sensor chip optically.
In assay [2] the target is biotinylated human SIRPα allele 2 domain 1 (a2d1) (human) (UniProt P78324). The description is as above.
Sequence of biotinylated human SIRPα allele 2 domain 1 (a2d1) (human) (P78324 other isoform, or with tags, fused parts or gaps): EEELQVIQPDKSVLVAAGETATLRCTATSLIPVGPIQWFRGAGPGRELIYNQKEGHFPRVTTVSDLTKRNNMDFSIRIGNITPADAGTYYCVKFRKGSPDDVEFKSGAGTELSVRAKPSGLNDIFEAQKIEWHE

Sequence of biotinylated human SIRPα allele 1 domain 1 (a1d1) (human) (P78324 other isoform, or with tags, fused parts or gaps): as above

B1: high affinity CD47 variant N363 C15G (designed binder)
chain: WQLPLLFNKTKSVEFTFGNDTVVIPCFVTNMEAQNTTEVYVKWKFKGRDIYTFDGDKNKSTVPTDFSSAKIEVSQLLKGDASLKMDKSDAVSHTGNYTCEVTELTREGETIIELKYRVVSHHHHHHHH
Consider B1, for which the Kd was 296 pM in assay [1] and 1100 pM in assay [2].
